The series in a line: soluble fraction after stress (log2 fold change); higher = more stays soluble; pooled small domains, quantitative proteomics. The note with it: stress: 75 degC.
In the case of “HMGQVPPLTRRETEIARLVSRGLSNKEIASTLVISPRTAEGHVEHILDKLGFSSRTQIATWLNEQTRNGK”, the “soluble fraction (log2)” value is -0.14.
“HMGRDWKTDLLNLATARGWGDVSYEVTGEGPDHARVYTAVAIVANQKTGTGVGPSKKEAERLAAEQAYRML”: the “soluble fraction (log2)” value is -0.099.
The same measure for “HMGRELSDLELSLLRILDDKIPLLIDEAADRLQLPVAQVLSAVTIMEIDGLIRREGMRKYLRTVEVEETK”: -1.63; for “HMGRFAETVEHIVAAQLARRQGIPTMEQFASFFNVSRATFQRRLGEEGETLEQIKQRVRLRLALELLHP”: -3.1.
The figure for “HMGRGAAKGPLKELGLDPVTGRPLVVKDGKFGMYVTDGETNAGLRRGDLVEQLTLDRGMELLAERRARADQ” is 0.201.
The same measure for “HMGRKIDDPSSMTGAEKAAVILLALGDEQRQLWEMMDDEEIRVVSQAMVNLGNVTSGAVEKLIMEFVGSMS”: -0.37.
Regarding “HMGRKPATTIPLQVRNAVLDLYRTKYYGANFQHYTELLHEHEGIRISTSSVAKILEAEYILSPK”, the “soluble fraction (log2)” value is -1.58.
The same measure for “HMGRKPVSPEIVERVLQLAKSNPDWGYEHIAGTMRYLGYNVSATTIRHILEANGIVPDPERRL”: -0.464.
Regarding “HMGRMSLDEAKAVILPIGEHKGHTMGEVLAIKPGLIDFYASQKFNSGKYPYLKEAAQVILENQG”, the “soluble fraction (log2)” value is -0.0288.
As for “HMGRRERKKLQSRRAIIEAAVTEFKEKGFREASVADIMTRADLGLGTFYNYFQSKEDILMSLLS”, the “soluble fraction (log2)” value was -0.0594.
The same measure for “HMGRRRAAPQEPLRQFPASPVTGQPIKLLLGQYGPYVTDGTTNASLPKGSSPDELTFEQATQLLAERALRG”: 0.0333; for “HMGRSARVQQAVHQAVRALLEENDGERSALSVPLVAERAGVNSSTIYRRWGDLPRLLAAVASN”: -0.686.
The same measure for “HMGRTVKGVNFVGLRDAGDPVDLAEIYSKEGADELVFLDITATHEKRKTLLDLVTRVAERINIPFTVGGGI”: 0.056; for “HMGSALLEAGADDAGQRLDQWLAAKLGPSISRSRVQALIKQGAVLVGGKPAGEAKRKLVAGDVVSVALPEP”: 0.0393.
For “HMGSDLVAWAQTRIGRHPEEAADVIAALIDRHGEARVRAASRSLLARKFAHASDLRTAIDAAIG”, the “soluble fraction (log2)” value was -0.365.
The same measure for “HMGSEEMLGALGVVERATDDGDWWIAVHGEHWRARSAQALVPGDRVRVARIDGLTLTVTPIA”: -0.632.
The figure for “HMGSEGVKVEDTIGMSEAEATATLGKSGFVVNKTESHDPYIKAGNVITQSPAAGSKAPKGTTVTLTISLGP” is 0.404.
In the case of “HMGSEISYSEFLNRVEQGQVAAVRLDGEQIFITGPTGEAYQTIQPRNTDVLPDLREAGVEIQAAPQ”, the “soluble fraction (log2)” value stood at 0.22.
The same measure for “HMGSEYPSNPLASRWAKGVRLYHDEWGYGVIQAARGSEPDDYVITVRFESGAEKSFLPKFQAHSLMIVKD”: -1.21.
The same measure for “HMGSGQVTLPDLEGKSMKEVARILSQLGLHLSPDGHGLAFKQSPAAGTRVPVGSTIKVSFQPL”: -0.164.
As for “HMGSKKAIPYVSGMSETEAQNELEEAGFKVTSSFQYDDSVESGKVISTTPEAGTKAEKGSTVTMLVSQGSN”, the “soluble fraction (log2)” value was 0.0103.
The figure for “HMGSLVQTAMQAVTKHIHDNAMRVGDTLPGEGHFAETLGVSRAVMREAFGALAALKLIDVGNGRKPRVGR” is -1.33; for “HMGSNATIKYAIKGDESLVQVAQKFNVTVSELRSWNNISAFENAKTGQELVINVPASKYETYFALANT” it is 0.403.
The figure for “HMGSNLSFDLSQIIASRYQEKAAELGLTAPSLARTDLSPQEQATAEVVARAIIADYYDQRVAPFNDLIPQ” is -0.631; for “HMGSNRPLALGDVVRIEGSKTLGTILELNAKDAVVALGALKTTLPLSRIHHASSQESQRLKRQATQAPLR” it is -0.203.
The figure for “HMGSPKLVIKNGQVDYQVLKKEKLDLLELTSLLRGQNTFSIREIEYAIIEPNGVITVIKKPEYQSVVKGDL” is -0.43; for “HMGSPVTAVMNRVLNETERQIVTLHVISGFKHREIAELLEKPVGTVLWTYNNALGKMRKAMQRE” it is -1.67.
For the sequence “HMGSRRFGDSNHAAKLTEEQVVEIRELAAAGATTKFLAEMVGMHPNYVGLILRGLSWPEAGGPLRVA”, the “soluble fraction (log2)” value stood at 0.126.
“HMGSVDMVYGDHKINSEHMDLSFKNQTAVLYDKVNYKSSLSMLSADKILVNFLNKYTKIEMNDENNNILIQ”: the “soluble fraction (log2)” value came to 0.176.
Take “HMGSVNDNVQKLTSQIGETTETGDTITPEDVELYKKMVDPLSTMAQKLEAAEILKLKGIIGSNGIIV”: the “soluble fraction (log2)” value is -0.211.
Turning to “HMGSWEDALKNWVDSALASGQKGILEQAVPKFERIMIETALTHTAGRRRDASLLLGWGRNTLTRKIKELGI”, the “soluble fraction (log2)” value was -0.383.
The figure for “HMGTAESIRLFLSSGLIKGVGEALAGRIVDTFGTDTFDIIENHPELLAGVKGISHRLAMSIYESFSQHIGV” is -1.13.
The figure for “HMGTDIGADKAAQTALADAGLSSSQVTGLRTKQDWDDGQLRYEVEFRAGGVEYDYELAADGTILKADRDT” is 0.17.
The same measure for “HMGTEITEQRAKEIALENAKVAESDVTAMRVKKEMDDGVWRYDVEFYVQNKEYDYEINAMDGTILSVDYD”: -0.00128.
Take “HMGTESFGARIRKIREARDWTPAALAEATGQTPEFVARVERDEVAPPVAFLLRLAAALGVDPSTF”: the “soluble fraction (log2)” value was -0.557.
As to “HMGTGADKNSWTIGDKVKHRKWGTGTVVKVTGAGEDAELDIAFKSEGIKRLLAAFAPIEKVK”, the “soluble fraction (log2)” value was -0.165.
The figure for “HMGTHDAGTRFFDNLDSLLQNRDATRADVLAVYLLAVSLGFRGKHRSVSSAPQIAHYRNQAYVTLFQ” is 0.737; for “HMGTIEQAFKGKAPGSAHLYDRARAVLAGGVTHDTRIHAPFPIMVQRALGARKWDVDGNEYIDY” it is 0.064.
The same measure for “HMGTMKGFVDGSSVHLRSGPSLSESIRAKVVKGQTLYITERRGDWYRATVHGGGEGWIHTSLVKLAG”: -1.68.
Regarding “HMGTPLYLLLAAEVRDRIATEQLAPHTAVPSERELAELHGVSRMTARQALALLESEGLVYRNPPRGTFVAE”, the “soluble fraction (log2)” value is -1.15.
The figure for “HMGTQIKSPMPGTILDVRVNVGDTVKEGDILMILEAMKMENEILAPVSGKVAAIQVSKGTAVNSGDLLAVL” is -0.0689.
The same measure for “HMGTRHPLPYAYARANTVLLEDDGDRLVLWAPENVSLTALGEVLRRFDVDALERESSSTLANRIAVAYAG”: -0.774; for “HMGTTLTKIPGIGENRARLLLRHFGSLRAVREADADALAAVKGMTRPAAEAIVRYFEQQDAEGRRD”: 0.282; for “HMGTTTPPATRKGKVTSSFLNVRSGPSTANAKVAELKQNAVVTIYETSSNGWHRIGVNQWVIGTNIQE”: -1.2.
The figure for “HMGTVSSGSSSTDTPFSLGEIVRHKVFGEGVVLSIEGQGDASRIQINFNTAGTKWLVTAYADLEK” is -1.09; for “HMGTVVKRNALVHAWTEFNGGRASTKLLALGPGKVGEWIELENPQSGRKLRGEVQVDGSVRLG” it is 0.0593; for “HMGTWKKIGTMTATVNDLYVRETPNGYIMGFINKGTVVEVDGKTTGKWTHAKVEGIGVGWIWTGYLDK” it is -3.17.
Regarding “HMGTYYTEIIAQLKKEIANGTWKLGERLPGELALAKQFNVSRSSIREALKALAYAGIVESKPGRGTFLLHV”, the “soluble fraction (log2)” value was -1.5.
As for “HMGVAAEDPDEAEKGAHSLKSSAANVGAEVVRGLAGEIESAASSGDVEAVRTILPGLEDAYSQAITDLET”, the “soluble fraction (log2)” value is 0.266.
The same measure for “HMGVDMGPAKYVGQKALTATEMRPAGKIQIGQTVFDAVSVGPFIGARKAVKVIKYENAQLYVEPE”: -0.415.

The values above are taken from the domain aggregation screens of Martell et al. (2025).
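Further: 20 min heating vs room temperature control held 20 min.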
